{"source": "paper PMC8141872", "about": "(The Journal of Biological Chemistry, 2021)", "binders": {"B1": {"name": "Ras suppressor-1 (Rsu-1), wild type, full length (natural protein, human, UniProt Q15404 1-277, looked up)", "chain": "MSKSLKKLVEESREKNQPEVDMSDRGISNMLDVNGLFTLSHITQLVLSHNKLTMVPPNIAELKNLEVLNFFNNQIEELPTQISSLQKLKHLNLGMNRLNTLPRGFGSLPALEVLDLTYNNLSENSLPGNFFYLTTLRALYLSDNDFEILPPDIGKLTKLQILSLRDNDLISLPKEIGELTQLKELHIQGNRLTVLPPELGNLDLTGQKQVFKAENNPWVTPIADQFQLGVSHVFEYIRSETYKYLYGRHMQANPEPPKKNNDKSKKISRKPLAAKNR", "notes": "after thrombin cleavage a few of its residues probably remain (surmised); also called Rsu-1 (WT); Rsu-1 WT; not shown: His6, N-terminal, cleaved"}}, "conditions_in_all_cases": "both partners purified", "key": {"[1]": {"target": "T1, PINCH-1 (residues 1-325), as subunit of the IPP complex (human, UniProt P48059 1-325)", "T1 construct": "human PINCH-1, residues 1-325; Stood in the assay within the IPP complex; source: E. coli, co-expressed with ILK and α-parvin, purified as the IPP complex", "T1 sequence (P48059 whole entry, the tested form may be a part, one chain of several)": "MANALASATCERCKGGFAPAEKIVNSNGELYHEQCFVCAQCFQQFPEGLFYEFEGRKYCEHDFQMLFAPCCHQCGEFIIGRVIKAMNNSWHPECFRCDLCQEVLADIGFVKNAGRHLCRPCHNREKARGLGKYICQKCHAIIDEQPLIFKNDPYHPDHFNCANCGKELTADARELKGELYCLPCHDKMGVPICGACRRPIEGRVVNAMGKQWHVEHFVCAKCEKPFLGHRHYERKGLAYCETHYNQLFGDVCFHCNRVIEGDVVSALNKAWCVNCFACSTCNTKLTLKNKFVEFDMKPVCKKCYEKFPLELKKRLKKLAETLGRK", "test": "SEC; Superose 6 10/300 GL; purified IPP heterotrimer mixed with purified Kindlin-2 and Rsu-1, 4 °C at least 2 h; 20 mM Tris pH 7.5, 150 mM NaCl, 5% glycerol, 0.2 mM TCEP; peak reloaded on the same column"}, "[2]": {"target": "B1", "test": "BLI; BLItz; GST-fused PINCH protein or GST (0.05 mg/ml) loaded on anti-GST biosensor, Rsu-1 WT or mutant in the mobile phase; 20 mM Tris pH 7.5, 150 mM NaCl, 1 mg/ml BSA, 0.05% Tween-20; 1:1 global fit; at least three measurements"}, "[3]": {"target": "T2, Kindlin-2 (residues 1-680) (human, UniProt Q96AC1 1-680)", "T2 construct": "human kindlin-2, residues 1-680; source: SUMO-tag cleaved by Ulp1", "T2 sequence (looked up)": "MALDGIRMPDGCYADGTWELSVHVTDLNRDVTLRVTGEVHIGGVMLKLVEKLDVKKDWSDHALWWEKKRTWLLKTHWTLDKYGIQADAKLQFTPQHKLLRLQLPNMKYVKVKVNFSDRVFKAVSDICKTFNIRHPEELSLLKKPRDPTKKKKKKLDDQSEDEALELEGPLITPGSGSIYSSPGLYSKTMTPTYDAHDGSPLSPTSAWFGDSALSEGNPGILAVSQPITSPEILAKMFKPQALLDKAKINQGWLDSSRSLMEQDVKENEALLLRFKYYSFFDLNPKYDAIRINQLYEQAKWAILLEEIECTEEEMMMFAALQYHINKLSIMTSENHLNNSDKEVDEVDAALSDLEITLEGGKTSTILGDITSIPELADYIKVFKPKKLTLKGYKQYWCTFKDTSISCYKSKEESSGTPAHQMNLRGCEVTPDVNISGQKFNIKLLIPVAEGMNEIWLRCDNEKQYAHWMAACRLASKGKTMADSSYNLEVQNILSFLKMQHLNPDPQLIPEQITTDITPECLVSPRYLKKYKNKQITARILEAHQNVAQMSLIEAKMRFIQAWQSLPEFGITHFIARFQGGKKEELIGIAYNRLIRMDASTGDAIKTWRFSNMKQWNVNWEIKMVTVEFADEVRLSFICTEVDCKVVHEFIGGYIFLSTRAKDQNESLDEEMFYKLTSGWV", "test": "SEC; Superose 6 10/300 GL; purified IPP heterotrimer mixed with purified Kindlin-2 and Rsu-1, 4 °C at least 2 h; 20 mM Tris pH 7.5, 150 mM NaCl, 5% glycerol, 0.2 mM TCEP; peak reloaded on the same column"}}}
{"binder": "B1", "values": [{"measurement": "binding result", "setting": "[1]", "result": "binds"}]}
{"binder": "GST-fused PINCH-2 LIM5S domain (residues 254-330) (domain or fragment, human, UniProt Q7Z4I7 254-330, looked up, human PINCH-2 LIM5 domain without the C-terminal 11 residues, residues 254-330; Cloned in pGEX4T1; held on the anti-GST biosensor; also called PINCH-2 LIM5S domain (WT); PINCH-2 LIM5 short domain; source: E. coli Rosetta 2 (DE3), purified (GSTrap)) GDVCYNCSHVIEGDVVSALNKAWCVSCFSCSTCNSKLTLKNKFVEFDMKPVCKRCYEKFPLELKKRLKKLSELTSRK", "values": [{"measurement": "Kd", "setting": "[2]", "result": "925 ± 194", "unit": "nM"}]}
{"binder": "Integrin-linked kinase (ILK, residues 1-452), as subunit of the IPP complex (natural protein, human, UniProt Q13418 1-452, looked up, human integrin-linked kinase (ILK), residues 1-452; Stood in the assay within the IPP complex; source: E. coli, co-expressed with PINCH-1 and α-parvin, purified as the IPP complex) MDDIFTQCREGNAVAVRLWLDNTENDLNQGDDHGFSPLHWACREGRSAVVEMLIMRGARINVMNRGDDTPLHLAASHGHRDIVQKLLQYKADINAVNEHGNVPLHYACFWGQDQVAEDLVANGALVSICNKYGEMPVDKAKAPLRELLRERAEKMGQNLNRIPYKDTFWKGTTRTRPRNGTLNKHSGIDFKQLNFLTKLNENHSGELWKGRWQGNDIVVKVLKVRDWSTRKSRDFNEECPRLRIFSHPNVLPVLGACQSPPAPHPTLITHWMPYGSLYNVLHEGTNFVVDQSQAVKFALDMARGMAFLHTLEPLIPRHALNSRSVMIDEDMTARISMADVKFSFQCPGRMYAPAWVAPEALQKKPEDTNRRSADMWSFAVLLWELVTREVPFADLSNMEIGMKVALEGLRPTIPPGISPHVCKLMKICMNEDPAKRPKFDMIVPILEKMQDK", "values": [{"measurement": "binding result", "setting": "[3]", "result": "binds"}]}
